# Test results published in IntAct's records for PubMed 23524951.
# B1: Activating molecule in BECN1-regulated autophagy protein 1 (Homo sapiens), Q9C0C7-3 (parent)
# chain: MKVVPEKNAVRILWGRERGARAMGAQRLLQELVEDKTRWMKWEGKRVELPDSPRSTFLLAFSPDRTLLASTHVNHNIYITEVKTGKCVHSLIGHRRTPWCVTFHPTISGLIASGCLDGEVRIWDLHGGSESWFTDSNNAIASLAFHPTAQLLLIATANEIHFWDWSRREPFAVVKTASEMERVRLVRFDPLGHYLLTAIVNPSNQQGDDEPEIPIDGTELSHYRQRALLQSQPVRRTPLLHNFLHMLSSRSSGIQVGEQSTVQDSATPSPPPPPPQPSTERPRTSAYIRLRQRVSYPTAECCQHLGILCLCSRCSGTRVPSLLPHQDSVPPASARATTPSFSFVQTEPFHPPEQASSTQQDQGLLNRPSAFSTVQSSTAGNTLRNLSLGPTRRSLGGPLSSHPSRYHREIAPGLTGSEWTRTVLSLNSRSEAESMPPPRTSASSVSLLSVLRQQEGGSQASVYTSATEGRGFPASGLATESDGGNGSSQNNSGSIRHELQCDLRRFFLEYDRLQELDQSLSGEAPQTQQAQEMLNNNIESERPGPSHQPTPHSSENNSNLSRGHLNRCRACHNLLTFNNDTLRWERTTPNYSSGEASSSWQVPSSFESVPSSGSQLPPLERTEGQTPSSSRLELSSSASPQEERTVGVAFNQETGHWERIYTQSSRSGTVSQEALHQDMPEESSEEDSLRRLSPAAYYAQRMIQYLSRRDSIRQRSMRYQQNRLRSSTSSSSSDNQGPSVEGTDLEFEDFEDNGDRSRHRAPRNARMSAPSLGRFVPRRFLLPEYLPYAGIFHERGQPGLATHSSVNRVLAGAVIGDGQSAVASNIANTTYRLQWWDFTKFDLPEISNASVNVLVQNCKIYNDASCDISADGQLLAAFIPSSQRGFPDEGILAVYSLAPHNLGEMLYTKRFGPNAISVSLSPMGRYVMVGLASRRILLHPSTEHMVAQVFRLQQAHGGETSMRRVFNVLYPMPADQRRHVSINSARWLPEPGLGLAYGTNKGDLVICRPEALNSGVEYYWDQLNETVFTVHSNSRSSERPGTSRATWRTDRDMGLMNAIGLQPRNPATSVTSQGTQTLALQLQNAETQTEREVPEPGTAASGPGEGEGSEYGASGEDALSRIQRLMAEGGMTAVVQREQSTTMASMGGFGNNIIVSHRIHRSSQTGTEPGAAHTSSPQPSTSRGLLPEAGQLAERGLSPRTASWDQPGTPGREPTQPTLPSSSPVPIPVSLPSAEGPTLHCELTNNNHLLDGGSSRGDAAGPRGEPRNR
# partner: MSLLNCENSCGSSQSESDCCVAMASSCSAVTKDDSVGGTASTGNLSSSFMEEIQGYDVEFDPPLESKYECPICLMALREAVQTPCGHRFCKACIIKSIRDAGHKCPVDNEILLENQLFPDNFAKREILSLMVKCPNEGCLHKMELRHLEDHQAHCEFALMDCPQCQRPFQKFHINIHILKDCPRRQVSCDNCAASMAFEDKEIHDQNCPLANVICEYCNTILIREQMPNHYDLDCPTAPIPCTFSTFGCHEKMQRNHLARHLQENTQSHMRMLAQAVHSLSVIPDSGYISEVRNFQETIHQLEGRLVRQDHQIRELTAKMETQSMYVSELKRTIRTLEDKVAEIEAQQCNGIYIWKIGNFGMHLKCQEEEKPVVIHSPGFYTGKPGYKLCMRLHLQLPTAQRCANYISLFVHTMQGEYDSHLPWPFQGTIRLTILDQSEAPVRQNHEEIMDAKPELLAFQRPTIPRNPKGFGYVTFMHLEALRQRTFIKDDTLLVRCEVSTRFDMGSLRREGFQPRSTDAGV
# Variants of: B1
# Conditions: with traf6_human TRAF6, Q9Y4K3
row,effect of a mutation on the interaction,Variant
1,disrupting interaction strength,E620A
